Results published in patent publication US20240398951A1 (WISTAR INSTITUTE OF ANATOMY AND BIOLOGY, published 2024).

Target: T1, human follicle stimulating hormone receptor (FSHR) (human, UniProt P23945 18-695)
T1 sequence (looked up): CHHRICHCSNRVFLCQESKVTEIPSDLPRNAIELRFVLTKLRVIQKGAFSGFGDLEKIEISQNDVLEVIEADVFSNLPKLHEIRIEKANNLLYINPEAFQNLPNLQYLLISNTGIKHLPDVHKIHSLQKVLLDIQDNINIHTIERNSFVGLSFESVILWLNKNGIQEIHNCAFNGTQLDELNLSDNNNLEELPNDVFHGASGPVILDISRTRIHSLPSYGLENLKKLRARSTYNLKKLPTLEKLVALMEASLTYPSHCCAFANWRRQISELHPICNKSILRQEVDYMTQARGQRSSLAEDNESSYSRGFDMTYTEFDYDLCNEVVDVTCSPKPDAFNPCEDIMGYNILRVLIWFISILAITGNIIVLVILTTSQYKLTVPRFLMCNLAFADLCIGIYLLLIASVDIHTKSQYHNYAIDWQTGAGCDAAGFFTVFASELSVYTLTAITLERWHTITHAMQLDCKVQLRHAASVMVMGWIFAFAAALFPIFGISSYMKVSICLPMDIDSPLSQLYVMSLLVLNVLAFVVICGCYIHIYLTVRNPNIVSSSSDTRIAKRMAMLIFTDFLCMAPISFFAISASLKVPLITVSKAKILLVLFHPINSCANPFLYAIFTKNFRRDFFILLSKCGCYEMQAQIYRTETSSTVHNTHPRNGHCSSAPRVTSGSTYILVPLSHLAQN
Assay: cell-based or functional assay

B1: D2AP11-TCE (FSHRxCD3 DNA encoded bispecific T cell engager) (bispecific antibody)
chain: DIQMTQSPSSLSASVGDRVTISCRASESVDNYGISFLNWFQQKPGKAPKLLIYAASNQRSGVPSRFSGSGSGTDFTLTISSLQPEDFATYFCQQSKEVPWTFGQGTKVEIKRGGGGSGGGGSGGGGSEVQLVESGGGLVQPGGSLRLSCSFSGFSLSTSGMGVGWIRQAPGKGLEWVAHIWWDDDKRYNPALKSRFTLSVDRSKNTLYLQMNSLRAEDTATYYCVQINYGNYRFDNWGHGTLVTVSSGGGGSEVQLVESGGGLVQPGGSLRLSCAASGYSFTGYTMNWVRQAPGKGLEWVALINPYKGVSTYNQKFKDRFTISVDKSKNTAYLQMNSLRAEDTAVYYCARSGYYGDSDWYFDVWGQGTLVTVSSGGGGSGGGGSGGGGSDIQMTQSPSSLSASVGDRVTITCRASQDIRNYLNWYQQKPGKAPKLLIYYTSRLESGVPSRFSGSGSGTDYTLTISSLQPEDFATYYCQQGNTLPWTFGQGTKVEIKSS
EC50 of dose dependent killing of OVCAR3 cells (xCELLigence, human PBMCs/T cells): 0.0159 µg/mL
EC50 of dose dependent killing of OVISE-FSHR cells (xCELLigence, human PBMCs/T cells): 0.0247 µg/mL
EC50 of killing of OVCAR4 cells in presence of human PBMCs (xCELLigence): 0.0113 µg/mL
potency of killing of OVCAR4 cells compared to the anti-FSHR ab D2AP11: ~1000 fold
